Measured values as given in PMC4684421 (Protein expression and purification, 2015).
Like-named read-outs stand apart in the source and are kept apart here. Values belong to the molecule of their own block, whether it stands above or below them.

Columns and labels:
Experiment in all cases: enzyme inhibition kinetics
Cathepsin B (human) [1] = molecular target: Cathepsin B (human)
Cathepsin B (human) [2] = molecular target: Cathepsin B (human); remark: listed apart in the source
Papain [3] = molecular target: T1, Papain (UniProt P00784 134-345)
T1 sequence (looked up): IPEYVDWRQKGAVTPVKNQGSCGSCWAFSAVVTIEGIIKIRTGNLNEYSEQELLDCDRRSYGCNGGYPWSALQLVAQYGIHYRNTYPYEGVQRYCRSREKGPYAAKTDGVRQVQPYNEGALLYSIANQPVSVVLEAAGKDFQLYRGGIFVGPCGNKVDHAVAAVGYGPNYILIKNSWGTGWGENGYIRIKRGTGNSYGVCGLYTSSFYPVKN

Papain [4] = molecular target: T1, Papain; remark: listed apart in the source

Ki (Cathepsin B (human) [1]): 0.06 nM | Ki (Cathepsin B (human) [2]): 0.1 nM
Molecule: Human cystatin C (from UniProt P01034 27-146) (natural protein)

Ki (Papain [3]): < 0.005 nM | Ki (Papain [4]): < 0.007 nM
B1: Human cystatin C (natural protein, UniProt P01034 27-146, looked up)
chain: SSPGKPPRLVGGPMDASVEEEGVRRALDFAVGEYNKASNDMYHSRALQVVRARKQIVAGVNYFLDVELGRTTCTKTQPNLDNCPFHDQPHLKRKAFCSFQIYAVPWQGTMTLSKSTCQDA
